Numbered stars: 1 amine (or outer) side, 2 acyl side, 3 side chain; on linkers, the order of the positions; unused ones are H or OH. Bridge positions count the residues as written; N and C are the ends. * marks the point of attachment. mXylylene = c1cc(C[*:1])cc(C[*:2])c1; Hexanoyl = CCCCCC(=O)*
T1: Recombinant human FAP (R&D systems, #3715-SE) (human)
T1 sequence: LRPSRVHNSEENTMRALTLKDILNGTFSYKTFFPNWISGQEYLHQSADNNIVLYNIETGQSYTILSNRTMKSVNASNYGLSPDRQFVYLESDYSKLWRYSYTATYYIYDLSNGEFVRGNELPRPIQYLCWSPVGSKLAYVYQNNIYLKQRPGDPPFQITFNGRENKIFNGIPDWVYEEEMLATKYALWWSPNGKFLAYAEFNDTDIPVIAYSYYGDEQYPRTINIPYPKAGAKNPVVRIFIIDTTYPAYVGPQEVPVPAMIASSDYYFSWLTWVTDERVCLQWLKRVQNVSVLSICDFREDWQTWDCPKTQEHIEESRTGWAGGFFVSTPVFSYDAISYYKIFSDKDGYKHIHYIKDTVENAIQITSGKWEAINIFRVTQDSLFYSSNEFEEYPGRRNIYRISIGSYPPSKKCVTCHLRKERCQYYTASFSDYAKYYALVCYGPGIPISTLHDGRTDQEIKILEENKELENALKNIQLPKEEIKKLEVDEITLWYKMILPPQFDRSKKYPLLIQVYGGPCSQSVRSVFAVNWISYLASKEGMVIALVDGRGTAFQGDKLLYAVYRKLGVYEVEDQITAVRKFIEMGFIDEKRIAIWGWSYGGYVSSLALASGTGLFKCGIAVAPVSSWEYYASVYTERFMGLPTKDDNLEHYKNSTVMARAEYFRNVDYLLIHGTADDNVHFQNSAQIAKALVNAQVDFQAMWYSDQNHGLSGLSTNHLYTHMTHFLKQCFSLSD


Tests used:
[1] = target: recombinant human PREP (R&D systems, #4308-SE) (human)
recombinant human PREP (R&D systems, #4308-SE) (human), sequence (chain, as listed by the source limits assumed): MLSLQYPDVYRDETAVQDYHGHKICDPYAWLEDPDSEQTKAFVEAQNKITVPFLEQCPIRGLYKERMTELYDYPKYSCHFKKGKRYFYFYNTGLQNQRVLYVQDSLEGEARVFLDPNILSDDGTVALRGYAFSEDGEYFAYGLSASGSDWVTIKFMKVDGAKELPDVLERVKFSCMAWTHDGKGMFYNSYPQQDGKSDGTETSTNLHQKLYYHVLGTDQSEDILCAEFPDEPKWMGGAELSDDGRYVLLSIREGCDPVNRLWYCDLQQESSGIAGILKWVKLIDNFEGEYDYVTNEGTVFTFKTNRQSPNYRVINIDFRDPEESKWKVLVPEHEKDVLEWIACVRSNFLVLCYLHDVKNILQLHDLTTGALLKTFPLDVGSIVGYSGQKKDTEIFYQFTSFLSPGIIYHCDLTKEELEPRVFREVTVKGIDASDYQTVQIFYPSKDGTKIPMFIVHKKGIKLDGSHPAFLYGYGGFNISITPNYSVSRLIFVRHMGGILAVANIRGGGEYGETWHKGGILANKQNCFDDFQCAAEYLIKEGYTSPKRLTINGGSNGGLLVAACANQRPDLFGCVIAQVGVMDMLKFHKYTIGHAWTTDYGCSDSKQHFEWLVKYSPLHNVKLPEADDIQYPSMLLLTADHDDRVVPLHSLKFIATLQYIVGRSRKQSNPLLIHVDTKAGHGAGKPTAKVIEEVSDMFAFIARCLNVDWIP

[2] = target: Recombinant human DPP4 (R&D systems, #9168-SE) (human)
[3] = target: human fibroblast activation protein (FAP) on FAP-expressing human WI-38 fibroblasts (human); test: competition FACS, WI-38 cells, vs Cy5-labeled compound; D: pIC50 ≤6.0; conditions: remark: other sources report otherwise
[4] = target: T1, Recombinant human FAP (R&D systems, #3715-SE) (human)

Binder	pIC50 (PREP) [1] [pIC50]	pIC50 (DPP4) [2] [pIC50]	pIC50 Category (FACS) [3] [pIC50]	pIC50 Category (Activity) [4] [pIC50]
CPPTQFCD (N-terminal Hex; Cys1 and Cys7 linked as thioethers via tMeBn(DOTA-AET); C-terminal NH2) [Hex-[Cys(tMeBn(DOTA-AET))-Pro-Pro-Thr-Gln-Phe-Cys]-Asp-NH2 (3BP-3426)]	< 6	< 6		
CPPTQFCD (N-terminal Hex; Cys1 and Cys7 linked as thioethers via 3MeBn; C-terminal NH2) [Hex-[Cys(3MeBn)-Pro-Pro-Thr-Gln-Phe-Cys]-Asp-NH2 (3BP-3476)]	< 6	< 6		
CPPTEFC (N-terminal Hex; Cys1 and Cys7 linked as thioethers via 3MeBn; C-terminal NH2) [Hex-[Cys(3MeBn)-Pro-Pro-Thr-Glu-Phe-Cys]-NH2 (3BP-3287)]	< 6	< 6		
Hexanoyl-CPPTEAC-NH2 (linker 1-7 via mXylylene; SMILES CCCCCC(=O)N[C@H]1CSCc2cccc(c2)CSC[C@@H](C(N)=O)NC(=O)[C@H](C)NC(=O)[C@H](CCC(=O)O)NC(=O)[C@H]([C@@H](C)O)NC(=O)[C@@H]2CCCN2C(=O)[C@@H]2CCCN2C1=O) [Hex-[Cys(3MeBn)-Pro-Pro-Thr-Glu-Ala-Cys]-NH2]			< 6	
Hexanoyl-CPPTEFCD-NH2 (linker 1-7 via mXylylene; not fully specified (residue 5); printed as Hex-[Cys(3MeBn)-Pro-Pro-Thr-Glu(NH-Apr-DOTA')-Phe-Cys]-Asp-NH2) [Hex-[Cys(3MeBn)-Pro-Pro-Thr-Glu(NH-Apr-DOTA')-Phe-Cys]-Asp-NH2]			< 6	< 6

From patent US20220315554A1, “COMPOUNDS COMPRISING A […] LIGAND AND USE THEREOF” (priority 2019, published 2022)
